Where a chain is given by its changes, count along the chain named. Blank lines part the entries; values can stand above or below the binder they belong to.
What was measured:
[1] = target: T1, human CD20 (on Raji cells, CD3-, CD20+ human B-cell line; on B16F10.9/CD20 cells) (human, UniProt P11836 1-297); experiment: cell-based or functional assay
T1 sequence (looked up): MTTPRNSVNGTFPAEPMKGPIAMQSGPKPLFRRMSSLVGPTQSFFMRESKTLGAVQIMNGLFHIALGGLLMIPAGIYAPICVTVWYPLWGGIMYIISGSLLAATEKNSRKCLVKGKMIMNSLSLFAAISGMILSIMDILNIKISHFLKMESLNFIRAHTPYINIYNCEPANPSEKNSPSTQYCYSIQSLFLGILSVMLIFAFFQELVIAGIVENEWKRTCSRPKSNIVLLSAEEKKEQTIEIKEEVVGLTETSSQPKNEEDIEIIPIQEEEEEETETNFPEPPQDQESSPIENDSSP

[2] = target: T2, His-tagged human FcγRIIA (R131) (human, UniProt P12318 36-218, limits assumed); experiment: SPR steady-state, 25 C, His-tagged FcγR captured, antibody injected
T2 construct: His-tagged, captured on anti-penta-histidine chip; also called human FcyRIIA (R131); FcRγIIA
T2 sequence (looked up): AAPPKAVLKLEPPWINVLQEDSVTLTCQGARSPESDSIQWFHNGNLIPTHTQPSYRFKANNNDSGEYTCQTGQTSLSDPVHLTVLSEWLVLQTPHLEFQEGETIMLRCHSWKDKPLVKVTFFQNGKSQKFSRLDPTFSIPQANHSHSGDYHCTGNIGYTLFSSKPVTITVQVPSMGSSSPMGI
Experimental: (§1) The anti-CD3×anti-CD20 bispecific antibodies having chimeric constant heavy chain regions Antibody 1 and Antibody 4 were analyzed using Surface Plasmon Resonance (SPR) (Biacore) technology to determine their kinetic binding parameters to human and cynomolgus Fcγ receptors.
(§2) Briefly, SPR experiments were performed at 25° C. on a Biacore T200 instrument employing a carboxymethyl dextran-coated (CM-5) chip. A mouse monoclonal anti-penta-histidine antibody (GE Healthcare) was immobilized on the surface of the CM-5 sensor chip using standard amine-coupling chemistry. […] Kinetic association (kₐ) and dissociation (kd) rate constants were determined by processing and fitting the data to a 1:1 binding model using Scrubber 2.0 curve fitting software. Binding dissociation equilibrium constants (KD) and dissociative half-lives (t_{1/2}) were calculated from the kinetic rate constants as: KD (M)=kd/kₐ; and t_{1/2} (min)=(ln 2/(60*kd).

[3] = target: T3, His-tagged cynomolgus FcγRIIIA (cynomolgus, UniProt Q8SPW2 17-208, limits assumed); experiment: as above
T3 construct: His-tagged, captured on anti-penta-histidine chip; also called cyno FcyRIIIA
T3 sequence (Q8SPW2 17-208 limits assumed): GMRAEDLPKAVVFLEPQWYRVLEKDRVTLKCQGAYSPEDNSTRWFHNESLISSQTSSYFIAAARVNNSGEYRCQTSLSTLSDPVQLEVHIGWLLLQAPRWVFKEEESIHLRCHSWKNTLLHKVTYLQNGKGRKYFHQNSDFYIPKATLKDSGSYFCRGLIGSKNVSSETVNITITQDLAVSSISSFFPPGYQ
Experimental: as §1, §2

[4] = target: T4, His-tagged cynomolgus FcγRIIB (cynomolgus, UniProt A0A140HDP4 43-217); experiment: as above
T4 construct: His-tagged, captured on anti-penta-histidine chip; also called cyno FcyRIIB
T4 sequence: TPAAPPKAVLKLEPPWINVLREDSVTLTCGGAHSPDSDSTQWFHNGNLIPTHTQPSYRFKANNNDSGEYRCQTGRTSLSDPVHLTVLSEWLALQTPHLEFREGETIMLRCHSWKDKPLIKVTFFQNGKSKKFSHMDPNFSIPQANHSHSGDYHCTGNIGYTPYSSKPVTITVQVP
Experimental: as §1, §2

His-tagged human FcγRIIB = target: T5, His-tagged human FcγRIIB (human, UniProt P31994 46-217, limits assumed); experiment: as above
T5 construct: His-tagged, captured on anti-penta-histidine chip; also called human FcyRIIB; FcRγIIB
T5 sequence (looked up): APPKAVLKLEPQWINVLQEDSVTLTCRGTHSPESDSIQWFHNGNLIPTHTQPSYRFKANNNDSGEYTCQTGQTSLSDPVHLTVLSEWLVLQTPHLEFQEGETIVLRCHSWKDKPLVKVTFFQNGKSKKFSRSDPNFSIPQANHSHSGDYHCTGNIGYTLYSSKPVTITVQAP
Experimental: as §1, §2

[5] = target: T6, His-tagged human FcγRIIA (H131) (human, UniProt P12318 36-218, limits assumed); experiment: as above
T6 construct: His-tagged, captured on anti-penta-histidine chip; also called hFcyRIIA (H131); FcRγIIA
T6 sequence (looked up): T2 sequence (looked up) with R132H
Experimental: as §1, §2

[6] = target: T7, His-tagged cynomolgus FcγRIIA (cynomolgus, UniProt A0A140HDN0 28-215); experiment: as above
T7 construct: His-tagged, captured on anti-penta-histidine chip; also called cyno FcyRIIA
T7 sequence: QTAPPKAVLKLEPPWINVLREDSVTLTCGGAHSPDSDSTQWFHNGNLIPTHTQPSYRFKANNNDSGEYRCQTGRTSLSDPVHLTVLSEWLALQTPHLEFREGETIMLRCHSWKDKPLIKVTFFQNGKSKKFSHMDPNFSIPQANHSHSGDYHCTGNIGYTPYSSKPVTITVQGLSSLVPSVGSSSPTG
Experimental: as §1, §2

[7] = target: T1, human CD20 (on Raji cells, CD3-, CD20+ …); experiment: cell-based or functional assay; remark: listed apart in the source

- Kd [2]: 19.3 µM
- Kd [3]: 66.3 µM
- Kd [4]: 13.9 µM
- Kd (His-tagged human FcγRIIB): 123 µM
- Kd [5]: 12 µM
- Kd [6]: 23.1 µM
B1: Antibody 1 (CD3×CD20-chimericFc bispecific antibody) (bispecific antibody)
heavy 1: EVQLVESGGGLVQPGRSLRLSCVASGFTFNDYAMHWVRQAPGKGLEWVSVISWNSDSIGYADSVKGRFTISRDNAKNSLYLQMHSLRAEDTALYYCAKDNHYGSGSYYYYQYGMDVWGQGTTVTVSSASTKGPSVFPLAPCSRSTSESTAALGCLVKDYFPEPVTVSWNSGALTSGVHTFPAVLQSSGLYSLSSVVTVPSSSLGTKTYTCNVDHKPSNTKVDKRVESKYGPPCPPCPAPPVAGPSVFLFPPKPKDTLMISRTPEVTCVVVDVSQEDPEVQFNWYVDGVEVHNAKTKPREEQFNSTYRVVSVLTVLHQDWLNGKEYKCKVSNKGLPSSIEKTISKAKGQPREPQVYTLPPSQEEMTKNQVSLTCLVKGFYPSDIAVEWESNGQPENNYKTTPPVLDSDGSFFLYSRLTVDKSRWQEGNVFSCSVMHEALHNHYTQKSLSLSLGK
heavy 2: EVQLVESGGGLVQPGRSLRLSCAASGFTFDDYTMHWVRQAPGKGLEWVSGISWNSGSIGYADSVKGRFTISRDNAKKSLYLQMNSLRAEDTALYYCAKDNSGYGHYYYGMDVWGQGTTVTVASASTKGPSVFPLAPCSRSTSESTAALGCLVKDYFPEPVTVSWNSGALTSGVHTFPAVLQSSGLYSLSSVVTVPSSSLGTKTYTCNVDHKPSNTKVDKRVESKYGPPCPPCPAPPVAGPSVFLFPPKPKDTLMISRTPEVTCVVVDVSQEDPEVQFNWYVDGVEVHNAKTKPREEQFNSTYRVVSVLTVLHQDWLNGKEYKCKVSNKGLPSSIEKTISKAKGQPREPQVYTLPPSQEEMTKNQVSLTCLVKGFYPSDIAVEWESNGQPENNYKTTPPVLDSDGSFFLYSRLTVDKSRWQEGNVFSCSVMHEALHNRFTQKSLSLSLGK
light: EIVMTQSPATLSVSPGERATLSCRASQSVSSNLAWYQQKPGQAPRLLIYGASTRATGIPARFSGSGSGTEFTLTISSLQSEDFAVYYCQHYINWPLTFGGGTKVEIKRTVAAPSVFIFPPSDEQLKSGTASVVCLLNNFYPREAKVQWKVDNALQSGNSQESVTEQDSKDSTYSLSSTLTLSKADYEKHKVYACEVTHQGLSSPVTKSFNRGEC
notes: also called Ab 1; Ab1
- % Survival B16F10.9/CD20 cells [M] (EC50, FACS, naive human PBMC effectors, 48 h) [1]: 1.95e-11 M
- Raji Cytotoxicity Activated Human T-cells [M] (EC50, calcein release) [7]: 2.5e-11 M
- Raji Cytotoxicity Activated Monkey T-cells [M] (EC50, calcein release) [7]: 9.1e-12 M

- Kd [2]: 20.5 µM
- Kd [3]: 42.4 µM
- Kd [4]: 14.6 µM
- Kd (His-tagged human FcγRIIB): 233 µM
- Kd [5]: 11.7 µM
- Kd [6]: 23.5 µM
B2: Antibody 2 (CD3×CD20-chimericFc bispecific antibody) (bispecific antibody)
heavy 1: EVQLVESGGGLVQPGRSLRLSCVASGFTFNDYAMHWVRQAPGKGLEWVSVISWNSDSIGYADSVKGRFTISRDNAKNSLYLQMHSLRAEDTALYYCAKDNHYGSGSYYYYQYGMDVWGQGTTVTVSSASTKGPSVFPLAPSSKSTSGGTAALGCLVKDYFPEPVTVSWNSGALTSGVHTFPAVLQSSGLYSLSSVVTVPSSSLGTQTYICNVNHKPSNTKVDKKVEPKSCDKTHTCPPCPAPPVAGPSVFLFPPKPKDTLMISRTPEVTCVVVDVSQEDPEVQFNWYVDGVEVHNAKTKPREEQFNSTYRVVSVLTVLHQDWLNGKEYKCKVSNKGLPSSIEKTISKAKGQPREPQVYTLPPSRDELTKNQVSLTCLVKGFYPSDIAVEWESNGQPENNYKTTPPVLDSDGSFFLYSKLTVDKSRWQQGNVFSCSVMHEALHNHYTQKSLSLSPGK
heavy 2: EVQLVESGGGLVQPGRSLRLSCAASGFTFDDYTMHWVRQAPGKGLEWVSGISWNSGSIGYADSVKGRFTISRDNAKKSLYLQMNSLRAEDTALYYCAKDNSGYGHYYYGMDVWGQGTTVTVASASTKGPSVFPLAPSSKSTSGGTAALGCLVKDYFPEPVTVSWNSGALTSGVHTFPAVLQSSGLYSLSSVVTVPSSSLGTQTYICNVNHKPSNTKVDKKVEPKSCDKTHTCPPCPAPPVAGPSVFLFPPKPKDTLMISRTPEVTCVVVDVSQEDPEVQFNWYVDGVEVHNAKTKPREEQFNSTYRVVSVLTVLHQDWLNGKEYKCKVSNKGLPSSIEKTISKAKGQPREPQVYTLPPSRDELTKNQVSLTCLVKGFYPSDIAVEWESNGQPENNYKTTPPVLDSDGSFFLYSKLTVDKSRWQQGNVFSCSVMHEALHNRFTQKSLSLSPGK
light: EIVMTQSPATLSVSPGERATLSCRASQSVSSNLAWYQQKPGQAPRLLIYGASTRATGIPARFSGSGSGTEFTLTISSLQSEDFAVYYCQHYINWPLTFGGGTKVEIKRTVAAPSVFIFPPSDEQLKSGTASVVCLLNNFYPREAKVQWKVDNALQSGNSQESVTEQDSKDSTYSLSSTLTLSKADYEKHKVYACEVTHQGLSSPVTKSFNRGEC
notes: also called Ab 2
